B1: LINE1-mini (parent)
chain: GGCAGAGCUCAACACAGCGUGGCAAAGUGGCUGUGGCUAGACUGCC

Variants of: B1
Experiment: self-cleavage, relative activity (ratio to wild type); higher = more cleavage; in vitro, sequencing; the parent is a self-cleaving ribozyme
G2U C18U gave a self-cleavage of 0.05.
Work on A24G G29C yielded a self-cleavage of 0.48.
G22C C46G gave a self-cleavage of 0.13.
For G30U A41U, the self-cleavage was 0.64.
Variant C8U G44A has a self-cleavage of 0.39.
A12C C42A showed a self-cleavage of 0.03.
Work on A12U G30A yielded a self-cleavage of 0.48.
For G2C A24U, the self-cleavage was 0.15.
A41U C46G showed a self-cleavage of 0.57.
A16G G44C showed a self-cleavage of 0.19.
For C13A C15A, the self-cleavage was 0.08.
C10G C13A gave a self-cleavage of 0.03.
Work on G22C G29U yielded a self-cleavage of 0.38.
A24G C45G gave a self-cleavage of 0.22.
With A26C C42A the self-cleavage was 0.16.
For G7C G33U, the self-cleavage was 0.07.
C8G U38C gave a self-cleavage of 0.05.
Work on G7A U38A yielded a self-cleavage of 0.09.
With A12G G33C the self-cleavage was 0.03.
For G35U A39C, the self-cleavage was 0.11.
C10A U20C gave a self-cleavage of 0.06.
Work on A12U G27C yielded a self-cleavage of 0.22.
Variant A14C G21U has a self-cleavage of 0.07.
With U20C C46G the self-cleavage was 0.47.
Variant U9C U28C has a self-cleavage of 0.05.
For A11U G40A, the self-cleavage was 0.03.
With C23A U28C the self-cleavage was 0.88.
Variant G2U C23G has a self-cleavage of 0.04.
For A11C C15U, the self-cleavage was 0.03.
Variant U32A C42A has a self-cleavage of 0.05.
For A11C C23A, the self-cleavage was 0.07.
Variant A26C G29U has a self-cleavage of 0.54.
Variant G1A G30C has a self-cleavage of 1.51.
C8U A41C gave a self-cleavage of 0.16.
In the case of A26U A41C, the self-cleavage is reported as 0.07.
With C10G G30C the self-cleavage was 0.2.
G1U A12U showed a self-cleavage of 0.08.
For A6C C8G, the self-cleavage was 0.07.
With C15G G29U the self-cleavage was 0.06.
In the case of C37G U43C, the self-cleavage is reported as 0.09.
Variant A16U G44U has a self-cleavage of 0.03.
C18G A25C showed a self-cleavage of 0.2.
C18G A25G gave a self-cleavage of 0.13.
A24G C31U gave a self-cleavage of 0.29.
G1U U9C showed a self-cleavage of 0.02.
Work on G5U G29A yielded a self-cleavage of 0.15.
In the case of G2C G44U, the self-cleavage is reported as 0.14.
For U28A A41C, the self-cleavage was 0.03.
In the case of A11U G19A, the self-cleavage is reported as 0.27.
A24C C46U showed a self-cleavage of 0.64.
Work on A6C G30C yielded a self-cleavage of 0.2.
For C31U G33A, the self-cleavage was 0.09.
G33U G40U gave a self-cleavage of 0.14.
U28G A41U gave a self-cleavage of 0.52.
Work on A4C G36U yielded a self-cleavage of 0.1.
Work on A14G C18U yielded a self-cleavage of 0.42.
U20A A39U gave a self-cleavage of 0.62.
A6U G19C showed a self-cleavage of 0.45.
Work on G2U U43A yielded a self-cleavage of 0.04.
Work on C37U A39U yielded a self-cleavage of 0.04.
In the case of C3U C18U, the self-cleavage is reported as 0.42.
For G2U G22C, the self-cleavage was 0.12.
In the case of C3U C23A, the self-cleavage is reported as 0.55.
Work on A26G U34C yielded a self-cleavage of 0.08.
A24C C45G showed a self-cleavage of 0.16.
Work on G30A U32C yielded a self-cleavage of 0.21.
G33C G44C gave a self-cleavage of 0.04.
A4C C37A showed a self-cleavage of 0.28.
In the case of G5C, the self-cleavage is reported as 0.07.
For A14G G33C, the self-cleavage was 0.03.
With G7U G29A the self-cleavage was 0.06.
A11G U20C gave a self-cleavage of 0.03.
Work on A11G U20A yielded a self-cleavage of 0.04.
C8G U9C showed a self-cleavage of 0.02.
Work on G2A G5A yielded a self-cleavage of 0.53.
With A16U U32C the self-cleavage was 0.18.
Variant C15G G33A has a self-cleavage of 0.03.
Variant G22A A39U has a self-cleavage of 0.5.
A16C C31G gave a self-cleavage of 0.03.
U28A C37U showed a self-cleavage of 0.04.
A4G C23A gave a self-cleavage of 0.44.
With U20G U43G the self-cleavage was 0.02.
For C8U U20G, the self-cleavage was 0.12.
C18A U34A gave a self-cleavage of 0.03.
Work on G22A U32C yielded a self-cleavage of 1.4.
G7U C18U gave a self-cleavage of 0.14.
Variant A4C C15G has a self-cleavage of 0.04.
With G36A A39C the self-cleavage was 0.27.
Variant A14C G30C has a self-cleavage of 0.07.
In the case of A39C C45A, the self-cleavage is reported as 0.14.
Work on A39C C45G yielded a self-cleavage of 0.12.
Work on A12C A16G yielded a self-cleavage of 0.02.
In the case of A25C C42A, the self-cleavage is reported as 0.11.
Work on C15U G29U yielded a self-cleavage of 1.42.
Work on C8A U28C yielded a self-cleavage of 0.25.
G17U C23A gave a self-cleavage of 0.21.
In the case of A12U G44A, the self-cleavage is reported as 0.22.
With A12G U32C the self-cleavage was 0.14.
Work on G27U G30U yielded a self-cleavage of 1.53.
With A41U C45U the self-cleavage was 0.55.
Work on A6U C42G yielded a self-cleavage of 0.05.
With A4U A16C the self-cleavage was 0.19.
For C3G A12U, the self-cleavage was 0.43.
For C31G A41U, the self-cleavage was 0.09.
C10A A14C gave a self-cleavage of 0.02.
Work on C3U G17U yielded a self-cleavage of 0.12.
Variant C13A U34A has a self-cleavage of 0.07.
C3G G33U showed a self-cleavage of 0.2.
G22C A41C showed a self-cleavage of 0.05.
Work on C18U U34A yielded a self-cleavage of 0.07.
Variant A39C C46U has a self-cleavage of 0.2.
Variant G40A C46A has a self-cleavage of 0.14.
In the case of A39C G44U, the self-cleavage is reported as 0.1.
C10G C31U gave a self-cleavage of 0.05.
U28G U43A gave a self-cleavage of 0.06.
With U38G A41G the self-cleavage was 0.14.
G36C C42A showed a self-cleavage of 0.05.
G1U C46U showed a self-cleavage of 0.43.
For C13A A26G, the self-cleavage was 0.12.
For C3U A6G, the self-cleavage was 0.09.
Variant C23A G29U has a self-cleavage of 0.88.
Variant C23A G29C has a self-cleavage of 0.39.
G30A U38C showed a self-cleavage of 0.64.
Work on A6U U9G yielded a self-cleavage of 0.15.
A6G A26U gave a self-cleavage of 0.1.
G2C G19A showed a self-cleavage of 0.17.
U32C G44U gave a self-cleavage of 0.07.
Work on G2A G27U yielded a self-cleavage of 0.75.
With U20A U32A the self-cleavage was 0.06.
In the case of G1A G33A, the self-cleavage is reported as 0.09.
U34C U43A showed a self-cleavage of 0.11.
A24C showed a self-cleavage of 0.71.
G22C G44U gave a self-cleavage of 0.4.
Work on A14U U43G yielded a self-cleavage of 0.35.
U28G G29U showed a self-cleavage of 0.61.
In the case of G1U C10G, the self-cleavage is reported as 0.03.
Work on U32A U43C yielded a self-cleavage of 0.04.
In the case of G19U G21U, the self-cleavage is reported as 0.58.
For A11G U32A, the self-cleavage was 0.02.
U9C A11C gave a self-cleavage of 0.02.
Variant G21U G27U has a self-cleavage of 0.54.
C15A A25U showed a self-cleavage of 0.07.
For C18A C46G, the self-cleavage was 0.47.
In the case of G2C U43A, the self-cleavage is reported as 0.04.
A4U G7U showed a self-cleavage of 0.2.
In the case of U20A U38C, the self-cleavage is reported as 0.41.
For G22U G40U, the self-cleavage was 0.15.
C10G A24G gave a self-cleavage of 0.1.
With G17C C42G the self-cleavage was 0.03.
G19U G35A showed a self-cleavage of 0.12.
In the case of A12G C46A, the self-cleavage is reported as 0.31.
In the case of U9C C13U, the self-cleavage is reported as 0.03.
In the case of A14G U34G, the self-cleavage is reported as 0.3.
Work on G17A G19A yielded a self-cleavage of 0.62.
Work on A12U U38G yielded a self-cleavage of 0.02.
With C13U A14C the self-cleavage was 0.09.
C13U U20G showed a self-cleavage of 0.1.
In the case of A11U C42G, the self-cleavage is reported as 0.02.
For A11U C42A, the self-cleavage was 0.03.
C3G G44C gave a self-cleavage of 0.93.
For G2A G22U, the self-cleavage was 0.89.
Work on G5C A41C yielded a self-cleavage of 0.04.
Work on C15U C37G yielded a self-cleavage of 0.08.
G5C G29U showed a self-cleavage of 0.12.
For A6C G27C, the self-cleavage was 0.57.
Variant A12U G35U has a self-cleavage of 0.13.
For G35A G44C, the self-cleavage was 0.07.

Reference: the RNAGym collection of RNA variant scans (doi:10.7554/elife.90254)
